Numbering of substitutions follows the chain as printed. Names and notes keep the numbering of the source.

For experiment [1], the target named is T1, LY6/PLAUR Domain Containing 3, LYPD3 (31-325) with C-terminal 6x-His tag (UniProt O95274 31-325).
T1 construct: LY6/PLAUR Domain Containing 3 (LYPD3, C4.4A), residues 31-325; also called C4.4A; source: expi293F, transfected, secreted, purified from media (HisTrap Excel); not shown: His6, C-terminal, kept
T1 sequence (looked up): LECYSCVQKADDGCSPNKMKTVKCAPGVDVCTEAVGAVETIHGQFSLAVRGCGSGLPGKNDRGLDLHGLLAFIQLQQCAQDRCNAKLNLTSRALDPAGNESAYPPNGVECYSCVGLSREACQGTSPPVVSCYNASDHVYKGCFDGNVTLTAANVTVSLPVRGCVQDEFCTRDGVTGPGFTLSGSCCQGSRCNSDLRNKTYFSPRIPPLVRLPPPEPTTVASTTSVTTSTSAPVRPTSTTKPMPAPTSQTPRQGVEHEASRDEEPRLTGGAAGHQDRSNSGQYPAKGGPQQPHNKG
Briefly: ELISA; MaxiSorp plates coated with 1 µg AGR2 (or BSA); varying LYPD3 in 50 mM Tris, 140 mM NaCl, 1% BSA, 0.05% Tween 20, pH 8.0, 1 h at 37 °C; detection with anti-6x-His-peroxidase. The note with it: both partners purified. Background: An ELISA detects its analyte on a solid surface through an enzyme-linked reagent.

The target in experiment [2] is T2, Anterior Gradient-2 (AGR2/PDIA17), AGR2 (21-175), 6x-His tag removed (human, UniProt O95994).
Experiment [3] addresses T2, Anterior Gradient-2 (AGR2/PDIA17), AGR2 …. Put plainly: ELISA; MaxiSorp plates coated with 1 µg AGR2 (wild type or mutant), PDI, TXN or BSA; varying MAb in 50 mM Tris, 140 mM NaCl, 1% BSA, 0.05% Tween 20, pH 8.0, 1 h at 37 °C; detection with Protein L-peroxidase. Particulars: both partners purified.

B1: Anterior Gradient-2 (AGR2/PDIA17), AGR2 (21-175), 6x-His tag removed (natural protein, human, UniProt O95994 21-175, looked up)
chain: RDTTVKPGAKKDTKDSRPKLPQTLSRGWGDQLIWTQTYEEALYKSKTSNKPLMIIHHLDECPHSQALKKVFAENKEIQKLAEQFVLLNLVYETTDKHLSPDGQYVPRIMFVDPSLTVRADITGRYSNRLYAYEPADTALLLDNMKKALKLLKTEL
notes: Anterior Gradient-2 (AGR2/PDIA17), human, residues 21-175; tag removed with 8x-His-TEV; also called rAGR2; recombinant AGR2; source: E. coli BL21(DE3), purified (HisTrap, TEV cleavage, second HisTrap flow-through); not shown: His6, N-terminal, cleaved
As to B1, the binding result in experiment [1] was “binds”.

B2: S31R/A53Y/T59P (antibody, V domains shown)
VH: EVQLLESGGGLVQPGGSLRLSCAASGFTFSRYAMSWVRQAPGKGLEWVSGISYQGAHTPYADSVKGRFTISRDNSKNTLYLQMNSLRAEDTAVYYCAKTYKGFDYWGQGTLVTVSS
VL: DIQMTQSPSSLSASVGDRVTITCRASQSISSYLNWYQQKPGKAPKLLIYSASRLQSGVPSRFSGSGSGTDFTLTISSLQPEDFATYYCQQGRRMPPTFGQGTKVEIK
For the molecule B2, the binding result in experiment [2] was “binds”.

B3: S31R/A53F/T59P (antibody, V domains shown)
VH: B2 VH with Y53F
VL: B2 VL
For B3, in experiment [2], the binding result is recorded as “binds”.

B4: affinity-matured anti-AGR2 MAb S31R (VH mutant of MAb-15, human IgG1) (antibody, V domains shown)
VH: B2 VH with Y53A, P59T
VL: B2 VL
notes: as the VH of m4 (scFv-15) with the stated change; human IgG1 heavy chain constant region; IgG1; source: expi293F, transfected, purified from media (rProteinA)
In experiment [3], B4 returned an EC50 of 156 pM.

B5: anti-AGR2 monoclonal antibody MAb-15 (VH-VL of scFv-15 in a full human IgG1 backbone) (antibody, V domains shown)
VH: B2 VH with R31S, Y53A, P59T
VL: B2 VL
notes: VH of scFv-15 (as the VH of m3); human IgG1 heavy chain constant region (full human IgG1 backbone); VL of scFv-15 (as the VL of m3); light chain constant region; IgG1; also called original anti-AGR2 antibody; parent MAb-15; source: expi293F, transfected, purified from media (rProteinA)
B5 yielded an EC50 in experiment [3] of 2030 pM.

B6: affinity-matured anti-AGR2 MAb S31R/A53Y (VH mutant of MAb-15, human IgG1) (antibody, V domains shown)
VH: B2 VH with P59T
VL: B2 VL
notes: as the VH of m4 (scFv-15) with the stated changes; human IgG1 heavy chain constant region; IgG1; also called anti-AGR2 MAb clone S31R/A53Y; source: expi293F, transfected, purified from media (rProteinA)
B6 had a concentration for a half-maximal effect (EC50) in experiment [3] of 40.4 pM.

B7: affinity-matured anti-AGR2 MAb S31R/A53F (VH mutant of MAb-15, human IgG1) (antibody, V domains shown)
VH: B2 VH with Y53F, P59T
VL: B2 VL
notes: as the VH of m4 (scFv-15) with the stated changes; human IgG1 heavy chain constant region; IgG1; source: expi293F, transfected, purified from media (rProteinA)
Regarding B7, the EC50 in experiment [3] worked out at 38.5 pM.

In general, EC50 refers to the midpoint of the concentration-response curve. A higher EC50 goes with weaker potency.

The values are drawn from article PMC11672854, “A High-Affinity Monoclonal Antibody Against the Pancreatic Ductal Adenocarcinoma Target, Anterior Gradient-2 (AGR2/PDIA17)” (Antibodies, 2024).
